Source: paper PMC3741392, “The Tip of the Tail Needle Affects the Rate of DNA Delivery by Bacteriophage P22” (PLoS ONE, 2013)

Biological target: the molecule itself
Assay: crystal structure; hanging drop vapor diffusion, 26% PEG 3350, 50 mM Tris-HCl pH 8.0; space group P212121; one trimer in the asymmetric unit; 1.1 Å

B1: bacteriophage HS1 tail needle knob (domain or fragment)
chain: RISALEYATTRKKSEVVYSGVSVTIPTAPTNLVSLLKTLTPSSGTLAPFFDTVNNKMVVFNENKTLFFKLSIVGTWPSGTANRSMQLTFSGSVPDTLVSSRNSATTTDNILLATFFSVDKDGFLATNGSTLTIQSNGAAFTATTIKIIAEQ
stoichiometry N: 3
